Positions count from the first letter of the chain named.
Key:
HER2 [1] = biological target: T1, HER2 (UniProt P04626 23-652, limits assumed); test: SPR (Biacore 8K), as in Example 1
T1 construct: also called antigen of the anti-HER2 antibody
Procedure: (§1) Affinity of the prepared variants was measured using Biacore (registered trademark) 8K (GE Healthcare) in the same manner as in Example 1.

HER2 [2] = biological target: T1, HER2; test: SPR (Biacore 8K), Example 3, as in Example 1
Procedure: as §1

B1: 68, 70, 72 variant of humanized anti-HER2 antibody (Fab) (Fab, V domains shown)
VH: EVQLVESGGGLVQPGGSLRLSCAASGFNIKDTYIHWVRQAPGKGLEWVARIYPTNGYTRYADSVKGRFRIRARTSKNTAYLQMNSLRAEDTAVYYCSRWGGDGFYAMDYWGQGTLVTVSS
VL: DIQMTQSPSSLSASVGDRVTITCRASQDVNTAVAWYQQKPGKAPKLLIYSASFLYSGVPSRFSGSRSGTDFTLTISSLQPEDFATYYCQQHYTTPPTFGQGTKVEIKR
B1 was tested, and the Kd (HER2 [1]) was 0.0208 nM.

B2: 72, 77, 79 variant of humanized anti-HER2 antibody (Fab) (Fab, V domains shown)
VH: B1 VH with R69T, R71S, T78R, Y80R
VL: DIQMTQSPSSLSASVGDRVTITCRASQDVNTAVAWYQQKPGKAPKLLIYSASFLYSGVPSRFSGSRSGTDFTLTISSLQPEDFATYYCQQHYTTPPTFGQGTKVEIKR
notes: also called Heavy chain 72, 77, 79 variant
B2 gave a Kd (HER2 [1]) of 0.00505 nM and a Kd (HER2 [2]) of 0.0321 nM.

B3: 74, 75, 77 variant of humanized anti-HER2 antibody (Fab) (Fab, V domains shown)
VH: B1 VH with R69T, R71S, R73D, S75R, K76R, T78R
VL: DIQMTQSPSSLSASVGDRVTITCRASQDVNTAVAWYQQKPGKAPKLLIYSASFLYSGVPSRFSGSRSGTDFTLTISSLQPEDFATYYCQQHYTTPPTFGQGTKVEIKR
For B3, the Kd (HER2 [1]) was 0.0443 nM.

B4: 79, 81, 82A variant of humanized anti-HER2 antibody (Fab) (Fab, V domains shown)
VH: B1 VH with R69T, R71S, R73D, Y80R, Q82R, N84R
VL: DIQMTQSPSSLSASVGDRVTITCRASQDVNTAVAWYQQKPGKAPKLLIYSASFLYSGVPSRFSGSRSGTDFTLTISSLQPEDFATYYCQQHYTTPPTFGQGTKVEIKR
B4 showed a Kd (HER2 [1]) of 0.0338 nM.

B5: 84, 85, 87 variant of humanized anti-HER2 antibody (Fab) (Fab, V domains shown)
VH: B1 VH with R69T, R71S, R73D, A88R, E89R, T91R
VL: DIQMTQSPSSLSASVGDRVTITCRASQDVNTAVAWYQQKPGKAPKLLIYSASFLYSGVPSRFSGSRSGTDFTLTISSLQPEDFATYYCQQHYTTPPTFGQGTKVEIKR
With B5 the Kd (HER2 [1]) was 0.0211 nM.

B6: light chain 63, 65, 67/heavy chain 72, 77, 79 variant of the anti-HER2 antibody (Fab, V domains shown)
VH: B1 VH with R69T, R71S, T78R, Y80R
VL: DIQMTQSPSSLSASVGDRVTITCRASQDVNTAVAWYQQKPGKAPKLLIYSASFLYSGVPSRFRGRRRGTDFTLTISSLQPEDFATYYCQQHYTTPPTFGQGTKVEIKR
For B6, the Kd (HER2 [2]) was 0.0126 nM.

B7: light chain 63, 65, 67/heavy chain 82B, 83, 84 variant of the anti-HER2 antibody (Fab, V domains shown)
VH: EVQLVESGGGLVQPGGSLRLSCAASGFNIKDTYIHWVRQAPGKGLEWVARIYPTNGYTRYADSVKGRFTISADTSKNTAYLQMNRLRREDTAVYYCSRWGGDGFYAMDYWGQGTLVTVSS
VL: B6 VL
B7 gave a Kd (HER2 [2]) of 0.0357 nM.

Source: patent publication US20220204649A1 (SYSMEX, published 2022)
